This note sets out measurements from patent US20070117966A1 (UNIVERSITY OF ROCHESTER, published 2007).

Where two headings read alike, the source gives them in different places. No end group written: not given here.

The target of experiment [1] is T1, purified αvβ3 integrin (human, UniProt P06756 31-1048; P05106 27-788, limits assumed).
T1 construct: Bought purified integrin, coated on plates at 5 µg/ml; also called immobilized human αvβ3 integrin; CD51/CD61
In words: competition ELISA on αvβ3 coated wells; competitor: biotinylated FNfn10-3JCLI4 at 800 pM; no inhibition at the highest concentration. (In general: An ELISA detects its analyte on a solid surface through an enzyme-linked reagent.)

The target of experiment [2] is αIIbβ3 integrin on K562-αIIbβ3 cells (UniProt P08514 32-1039; P05106 27-788). Description: cell-based or functional assay.
Experiment [3] deals with αvβ3 integrin on K562-αvβ3 cells (human, UniProt P06756 31-1048; P05106 27-788). Description: cell-based or functional assay.
Experiment [4] addresses T1, purified αvβ3 integrin.

T1 sequence (P06756 31-1048 limits assumed, form in doubt, chain 1 of 2): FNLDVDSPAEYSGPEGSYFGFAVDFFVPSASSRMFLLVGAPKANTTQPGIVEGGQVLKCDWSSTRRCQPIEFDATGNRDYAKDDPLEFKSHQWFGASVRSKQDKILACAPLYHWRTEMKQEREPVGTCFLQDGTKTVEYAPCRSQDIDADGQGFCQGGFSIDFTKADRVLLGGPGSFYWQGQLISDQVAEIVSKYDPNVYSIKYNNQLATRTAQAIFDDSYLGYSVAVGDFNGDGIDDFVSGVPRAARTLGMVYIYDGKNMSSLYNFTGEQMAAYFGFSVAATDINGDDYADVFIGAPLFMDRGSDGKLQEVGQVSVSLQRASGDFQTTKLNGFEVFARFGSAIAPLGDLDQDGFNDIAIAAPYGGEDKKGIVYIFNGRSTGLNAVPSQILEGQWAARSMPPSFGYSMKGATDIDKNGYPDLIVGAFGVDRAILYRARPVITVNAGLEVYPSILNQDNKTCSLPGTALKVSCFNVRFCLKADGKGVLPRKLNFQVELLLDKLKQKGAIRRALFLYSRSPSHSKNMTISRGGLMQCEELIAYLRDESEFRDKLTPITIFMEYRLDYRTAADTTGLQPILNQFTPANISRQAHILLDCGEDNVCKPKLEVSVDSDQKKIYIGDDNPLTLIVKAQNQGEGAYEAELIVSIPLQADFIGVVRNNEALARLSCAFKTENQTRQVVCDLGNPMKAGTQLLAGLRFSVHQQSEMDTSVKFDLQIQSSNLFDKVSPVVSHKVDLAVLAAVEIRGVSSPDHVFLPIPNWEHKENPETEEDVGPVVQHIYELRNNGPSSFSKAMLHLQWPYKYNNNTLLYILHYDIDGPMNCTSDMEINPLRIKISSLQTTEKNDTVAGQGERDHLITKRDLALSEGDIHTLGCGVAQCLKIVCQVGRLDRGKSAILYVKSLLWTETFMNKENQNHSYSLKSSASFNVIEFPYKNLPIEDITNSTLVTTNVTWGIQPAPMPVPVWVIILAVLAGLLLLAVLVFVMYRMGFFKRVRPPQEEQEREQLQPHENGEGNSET
T1 sequence (P05106 27-788 limits assumed, form in doubt, chain 2 of 2): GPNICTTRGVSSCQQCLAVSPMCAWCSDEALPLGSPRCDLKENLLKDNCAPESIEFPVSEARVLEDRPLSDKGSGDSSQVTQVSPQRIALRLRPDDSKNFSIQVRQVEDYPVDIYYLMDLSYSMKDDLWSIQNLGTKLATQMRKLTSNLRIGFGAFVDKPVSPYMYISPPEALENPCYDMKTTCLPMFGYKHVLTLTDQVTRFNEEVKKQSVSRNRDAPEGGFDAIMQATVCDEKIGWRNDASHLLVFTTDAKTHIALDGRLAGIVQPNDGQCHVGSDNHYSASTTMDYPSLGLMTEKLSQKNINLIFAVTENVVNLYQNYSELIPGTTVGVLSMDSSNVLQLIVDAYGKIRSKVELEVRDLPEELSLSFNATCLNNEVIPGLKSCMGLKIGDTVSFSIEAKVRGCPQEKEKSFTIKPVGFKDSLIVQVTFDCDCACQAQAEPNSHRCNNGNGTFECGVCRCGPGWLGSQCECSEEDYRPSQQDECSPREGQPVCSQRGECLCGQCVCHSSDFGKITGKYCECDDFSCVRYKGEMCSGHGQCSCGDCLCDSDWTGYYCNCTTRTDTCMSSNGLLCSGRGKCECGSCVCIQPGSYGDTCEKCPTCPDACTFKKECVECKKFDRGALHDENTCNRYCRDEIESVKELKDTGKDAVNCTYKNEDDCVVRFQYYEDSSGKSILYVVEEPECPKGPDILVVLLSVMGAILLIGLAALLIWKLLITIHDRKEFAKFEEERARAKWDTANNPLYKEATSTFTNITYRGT
Sequence of αvβ3 integrin on K562-αvβ3 cells (P06756 31-1048, chain 1 of 2): as the sequence (P06756 31-1048 limits assumed, form in doubt, chain 1 of 2) above
Sequence of αvβ3 integrin on K562-αvβ3 cells (P05106 27-788, chain 2 of 2): as the sequence (P05106 27-788 limits assumed, form in doubt, chain 2 of 2) above

In the case of GRGDSPK [GRGDSPK peptide], in the experiment with purified αvβ3 integrin [1], the half-maximal inhibitory concentration (IC50) is > 80 nM.

In the case of QCESGPCCRNCKFLKEGTICKRARGDDMDDYCNGKTCDCPRNPHKGPAT (ligand, ends and bridges not checked; cysteine pairing not given here) [echistatin], in experiment [2], the “inhibition of adhesion of K562-αIIbβ3 cells to fibronectin, IC50” value stood at 10.2 nM. In experiment [3], the “inhibition of adhesion of K562-αvβ3 cells to vitronectin, IC50” value amounted to 5.9 nM. Also, the midpoint of inhibition in the experiment with purified αvβ3 integrin [4], the IC50, lay at 0.93 nM.

As usually defined, the IC50 is the midpoint of a concentration-inhibition curve. Read a high IC50 as a need for much substance.
